From patent US20260347464 (published 2026)
Numbering of substitutions follows the chain as printed.

T1: MusCD100 (cell surface) (mouse, UniProt O09126)
T1 chain: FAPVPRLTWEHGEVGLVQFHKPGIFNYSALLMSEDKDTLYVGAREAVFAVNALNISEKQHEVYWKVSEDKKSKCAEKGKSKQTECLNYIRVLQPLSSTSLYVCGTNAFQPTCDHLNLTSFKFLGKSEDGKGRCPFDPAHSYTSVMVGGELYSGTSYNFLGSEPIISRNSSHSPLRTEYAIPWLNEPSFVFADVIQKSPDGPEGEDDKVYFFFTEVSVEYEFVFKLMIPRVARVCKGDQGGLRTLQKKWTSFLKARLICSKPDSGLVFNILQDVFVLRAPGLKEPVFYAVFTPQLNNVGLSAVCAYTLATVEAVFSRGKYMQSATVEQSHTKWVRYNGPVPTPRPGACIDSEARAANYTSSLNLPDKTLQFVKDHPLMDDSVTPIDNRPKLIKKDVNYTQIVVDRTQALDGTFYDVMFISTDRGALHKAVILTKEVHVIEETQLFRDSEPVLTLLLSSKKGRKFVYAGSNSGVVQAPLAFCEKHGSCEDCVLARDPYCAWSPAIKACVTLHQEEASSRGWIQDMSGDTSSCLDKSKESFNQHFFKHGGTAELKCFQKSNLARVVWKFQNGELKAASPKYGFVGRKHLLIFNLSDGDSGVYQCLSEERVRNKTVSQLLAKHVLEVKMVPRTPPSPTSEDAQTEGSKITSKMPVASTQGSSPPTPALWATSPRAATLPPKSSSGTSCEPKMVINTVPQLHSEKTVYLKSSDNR

T2: MusCD100-His (mouse, UniProt O09126)
T2 chain: T1 chain

B1: H21 (antibody, V domains shown)
VH: EVQLVQSGGGLVQPGRSLRLSCAASGFTFDDYAMHWVRQAPGKGLEWVSGISWNSGSIGYADSVKGRFTISRDNAKNSLYLQMNSLRAEDTALYYCAKDIGGSYFDYYYYGMDVWGQGTLVTVSS
VL: EIVLTQSPATLSLSPGERATLSCRTSHNVNTYIAWYQQKPGQAPRLLFYDSSTRLPDTPARFSGSGSGTDFTLTISSLEPEDFAVYYCQQRTSWPLTFGGGTKVEIK
B2: H74 (antibody, V domains shown)
VH: QVQLQQWGAGLLKPSETLSLTCAVYGGSFSGYYWSWIRQPPGKGLEWIGEINHSGSTNYNPSLKSRVTISVDTSKNQFSLKLSSVTAADTAVYYCAGTRWLQFPLNYWGQGTLVTVSS
VL: SYVLTQPPSVSVSPGQTASITCSGDKLGDKYAYWYQQKPGQSPVLVLYQDAKRPSGIPERFSGSNSGNTATLTISGTQAMDEADYYCQAWDSSTAGYVFGTGTKVTVL
B3: B13 (antibody, V domains shown)
VH: QVQLQQWGAGLLKPSETLSLTCAISSGSFSGYYWTWIRQPPGKGLEWIGETNHNGFTTYNTSLKSRITISIDASKNQFYLNLSSVTAADTATYFCARGPAYYADALDGFDIWGQGTMVTVSS
VL: B2 VL with S1Q, Y2S, A32V, Y33S, L47I, A51N, A95K, G96A, T101A
B4: A15 (antibody, V domains shown)
VH: EVQLLESGGGLIQPGGSLRLSCAASGFTVSSNYMSWVRQAPGKGLEWVSVIYSGGSTYYADSVKGRFTISRDNSKNTLYLQMNSLRAEDTAVYYCAREVEGGMDVWGQGTTVTVSS
VL: SYVLTQPPSVSVSPGQTASIICSGDKLGDKYVYWYQQKSGQSPVLVIYQDRKRPSGIPERFSGSNSGNTASLAISGLQSEDEADYYCAAWDDSLNGWVFGGGTKLTVL
B5: C-B71 (antibody, V domains shown)
VH: QVQLQESGPGLVKPSQTLSLTCTVSGGSISSGGYYWSWIRQHPGKGLEWIGYIYYSGSTYYNPSLKSRVTISVDTSKNQFSLKLSSVTAADTAVYYCAREGVAAAGIDYWGQGTPVTVSS
VL: NIQLTQSPSSVSASVGDRVTITCRASQGISSWLAWYQQKPGKAPKLLISTASSVQSGVPTRFSASGSGTDFTLTISSLQPEDFATYYCQQGYRTPWTFGQGTKVEIK
B6: H5 (antibody, V domains shown)
VH: QLQLQESGPGLVKPPGTLSLTCAVSGGSISSSNWWSWVRQPPGKGLEWIGEIYHSGSTNYNPSLKSRVTISVDTSKNQFSLKLSSVTAADTAVYYCAVYDFWSGSGLDYWGQGTLVTVSS
VL: SYVLTQPPSVSVSPGQTASITCSGDKLGDKFASWYQQKPGQSPVLVIYQDRKRPSRIPERFSGSNSGNTATLTITGTQTIDEADYYCQAWDSGTVIFGGGTKLTVL
B7: A14 (antibody, V domains shown)
VH: ETQLVESGGGLVQPGGSLRLSCAASGFPFSSYEMNWVRQAPGKGLEWVAEISSSGSTIYYADSVKGRFTISRDNAKKSLYLQMNSLRAEDTAVYYCARGRFEGYCSSTNCHTGAFDFWGQGTMVTVSS
VL: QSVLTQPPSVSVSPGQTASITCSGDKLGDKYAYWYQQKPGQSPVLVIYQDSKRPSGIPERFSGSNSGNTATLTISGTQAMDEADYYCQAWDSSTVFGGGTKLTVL
B8: C-C081 (antibody, V domains shown)
VH: QVQLLESGGGLVKPGGSLRLSCAASGFTFSSYSMNWVRQAPGKGLEWVSSISSSSSYIYYADSVKGRFTISRDNAKNSLYLQMNSLRAEDTAVYYCARDHYPGPDAFDVWGQGTMVTVSS
VL: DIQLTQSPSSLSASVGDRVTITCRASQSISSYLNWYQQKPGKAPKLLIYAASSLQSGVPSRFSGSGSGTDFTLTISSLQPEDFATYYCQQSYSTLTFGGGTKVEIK
B9: H12 (antibody, V domains shown)
VH: QVQLQESGPGLVKPSGTLSLTCAVSGGSISSSNWWSWVRQPPGKGLEWIGEIYHSGSTNYNPSLKSRVTISVDKSKNQFSLKLSSVTAADTAVYYCARFVSSGYLGAFDIWGQGTMVTVSS
VL: QSVLTQPPSVSVSPGQTASITCSGDRLGDKYSYWYQQKPGQSPVLVIYQDSKRPSGIPERFSGSNSGNTATLTISGTQAMDEADYYCQVWDSSTAVFGGGTKLTVL
B10: H96 (antibody, V domains shown)
VH: QVQLQQWGAGLLKPSETLSLTCAVYGGSFSGYYWSWIRQPPGKGLEWIGEINHSGSTNYNPSLKSRVTISVDTSKNQFSLKLSSVTAADTAVYYCARESNSYGYGTDYWGQGTLVTVSS
VL: QSALTQPPSVSVSPGQTATITCSGDKLGEKYAFWYQQKPGQSPVLVIYQDNKRPSGIPERFTGSNSGNTATLTIFGTQTMDEADYYCQAWDSSTYVFGTGTKVTVL
B11: C-C171 (antibody, V domains shown)
VH: QVQLQESGPGLVKPSGTLSLSCTVSGGSMSSNYLWSWVRQTPGKGLQWIGDIFHSGRTYYNPSLKRRVTISVDKSKNQFSLKLSSVTAADTAVYYCARQGWTTPFDYWGQGTPVTVSS
VL: DIQLTQSPSSVSASVGDRVTITCRASQGISSWLAWYQQKPGKAPKLLIYAASSLQSGVPSRFSGSGSGTDFTLTISSLQPEDFATYYCLQDVYYPWTFGQGTTVEIK

Biological target: T1, MusCD100 (cell surface)
Experiment: FACS, HEK293

EC50 | Binder
0.0814 µg/mL | B1
0.05 µg/mL | B2
0.0697 µg/mL | B3
0.0548 µg/mL | B4
0.118 µg/mL | B5
0.0606 µg/mL | B6
0.0599 µg/mL | B7
0.185 µg/mL | B8
0.0758 µg/mL | B9
0.0504 µg/mL | B10
0.31 µg/mL | B11

What follows are binders tested against T3, HuCD100 (cell surface) (human, UniProt Q92854) (assay: FACS, HuPBMC).
T3 sequence (Q92854 22-734): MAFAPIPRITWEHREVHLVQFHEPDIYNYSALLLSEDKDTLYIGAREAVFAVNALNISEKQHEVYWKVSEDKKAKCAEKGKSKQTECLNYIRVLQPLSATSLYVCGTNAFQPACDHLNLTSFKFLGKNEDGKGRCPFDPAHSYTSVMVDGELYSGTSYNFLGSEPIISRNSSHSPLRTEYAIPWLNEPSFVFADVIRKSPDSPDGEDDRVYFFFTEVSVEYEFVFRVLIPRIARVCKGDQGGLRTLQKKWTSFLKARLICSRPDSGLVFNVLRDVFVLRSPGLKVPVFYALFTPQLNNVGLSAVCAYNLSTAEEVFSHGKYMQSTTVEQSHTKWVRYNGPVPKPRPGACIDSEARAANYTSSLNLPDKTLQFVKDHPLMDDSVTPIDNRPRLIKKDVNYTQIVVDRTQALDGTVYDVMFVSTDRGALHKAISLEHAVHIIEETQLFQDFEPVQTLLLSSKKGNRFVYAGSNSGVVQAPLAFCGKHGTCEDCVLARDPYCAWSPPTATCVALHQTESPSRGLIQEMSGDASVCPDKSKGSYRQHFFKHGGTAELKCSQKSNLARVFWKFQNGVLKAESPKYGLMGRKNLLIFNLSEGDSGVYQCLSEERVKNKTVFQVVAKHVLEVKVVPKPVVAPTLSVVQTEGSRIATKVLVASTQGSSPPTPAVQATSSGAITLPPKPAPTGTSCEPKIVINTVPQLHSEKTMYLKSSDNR

EC50 | Binder
0.0154 µg/mL | B1
0.00828 µg/mL | B2
0.0109 µg/mL | B3
0.00589 µg/mL | B4
0.177 µg/mL | B5
0.0132 µg/mL | B6
0.0145 µg/mL | B7
0.0194 µg/mL | B8
0.0177 µg/mL | B9
0.0104 µg/mL | B10
0.0859 µg/mL | B11

Biological target: T2, MusCD100-His
Experiment: ELISA

EC50 | Binder
0.00686 µg/mL | B1
0.00478 µg/mL | B2
0.00842 µg/mL | B3
0.0101 µg/mL | B4
0.00936 µg/mL | B5
0.00722 µg/mL | B6
0.00792 µg/mL | B7
0.0541 µg/mL | B8
0.0112 µg/mL | B9
0.0109 µg/mL | B10
0.031 µg/mL | B11

The binders below were run against HuCD100-His (human, UniProt Q92854) (assay: ELISA).
HuCD100-His, sequence (Q92854 22-734): as above

EC50 | Binder
0.00595 µg/mL | B1
0.00467 µg/mL | B2
0.00733 µg/mL | B3
0.0076 µg/mL | B4
0.0119 µg/mL | B5
0.00639 µg/mL | B6
0.00613 µg/mL | B7
0.0141 µg/mL | B8
0.0113 µg/mL | B9
0.00968 µg/mL | B10
0.0107 µg/mL | B11

The binders below were run against T3, HuCD100 (cell surface) (assay: FACS, HEK293).

EC50 | Binder
0.0374 µg/mL | B1
0.0274 µg/mL | B2
0.0346 µg/mL | B3
0.0269 µg/mL | B4
0.0879 µg/mL | B5
0.0288 µg/mL | B6
0.0277 µg/mL | B7
0.0927 µg/mL | B8
0.0369 µg/mL | B9
0.0225 µg/mL | B10
0.167 µg/mL | B11

Each binder was assayed against T3, HuCD100 (cell surface) (assay: FACS, Jurkat).

EC50 | Binder
0.0258 µg/mL | B1
0.0138 µg/mL | B2
0.0185 µg/mL | B3
0.00851 µg/mL | B4
0.108 µg/mL | B5
0.0184 µg/mL | B6
0.0195 µg/mL | B7
0.73 µg/mL | B8
0.028 µg/mL | B9
0.0162 µg/mL | B10
0.449 µg/mL | B11
